# Data published in article PMC10739154, “Reinvestigation of Disulfide-bonded Oligomeric Forms of the Unfolded Protein Response Transducer ATF6” (Cell Structure and Function, 2019).
# Tests used:
# [1] = molecular target: C467A mutant of ATF6α(Δ244)-TAP (human); assay: non-reducing SDS-PAGE with immunoblotting; ATF6α-TAP constructs of various lengths at the N-terminus in HCT116 DKO cells; lysates on non-reducing SDS-PAGE; blot with anti-Myc; shows disulfide-bonded forms
# [2] = molecular target: C467A mutant of ATF6α(Δ331)-TAP (human); assay: as above
# [3] = molecular target: C618A mutant of ATF6α(Δ244)-TAP (human); assay: as above
# [4] = molecular target: the molecule itself; assay: non-reducing SDS-PAGE with immunoblotting; one form of ATF6α in the cells; lysis in 1% NP-40 buffer (50 mM Tris/HCl pH 7.5, 150 mM NaCl, 10 mM N-ethylmaleimide), boiled in SDS sample buffer without dithiothreitol; blot with anti-ATF6α; shows disulfide-bonded forms
# [5] = molecular target: the molecule itself; assay: non-reducing SDS-PAGE with immunoblotting; ATF6α-TAP constructs of various lengths at the N-terminus in HCT116 DKO cells; lysates on non-reducing SDS-PAGE; blot with anti-Myc; shows disulfide-bonded forms
Molecule,stoichiometry N [4],other results
C467A mutant of ATF6α(Δ244)-TAP (domain or fragment),–,stoichiometry N [1]: 2
C467A mutant of ATF6α(Δ331)-TAP (domain or fragment),–,stoichiometry N [2]: 2
C618A mutant of ATF6α(Δ244)-TAP (domain or fragment),–,stoichiometry N [3]: 2
"ATF6α (endogenous, HCT116 cells) (natural protein, human (endogenous in HCT116), UniProt P18850 1-670, looked up, ATF6α, endogenous in human colorectal carcinoma-derived HCT116 cells; also called pATF6α(P); source: endogenous, HCT116 WT cell lysate) MGEPAGVAGTMESPFSPGLFHRLDEDWDSALFAELGYFTDTDELQLEAANETYENNFDNLDFDLDLMPWESDIWDINNQICTVKDIKAEPQPLSPASSSYSVSSPRSVDSYSSTQHVPEELDLSSSSQMSPLSLYGENSNSLSSAEPLKEDKPVTGPRNKTENGLTPKKKIQVNSKPSIQPKPLLLPAAPKTQTNSSVPAKTIIIQTVPTLMPLAKQQPIISLQPAPTKGQTVLLSQPTVVQLQAPGVLPSAQPVLAVAGGVTQLPNHVVNVVPAPSANSPVNGKLSVTKPVLQSTMRNVGSDIAVLRRQQRMIKNRESACQSRKKKKEYMLGLEARLKAALSENEQLKKENGTLKRQLDEVVSENQRLKVPSPKRRVVCVMIVLAFIILNYGPMSMLEQDSRRMNPSVSPANQRRHLLGFSAKEAQDTSDGIIQKNSYRYDHSVSNDKALMVLTEEPLLYIPPPPCQPLINTTESLRLNHELRGWVHRHEVERTKSRRMTNNQQKTRILQGALEQGSNSQLMAVQYTETTSSISRNSGSELQVYYASPRSYQDFFEAIRRRGDTFYVVSFRRDHLLLPATTHNKTTRPKMSIVLPAININENVINGQDYEVMMQIDCQVMDTRILHIKSSSVPPYLRDQQRNQTNTFFGSPPAATEATHVVSTIPESLQ",2,–
"HA-ATF6α(WT) (natural protein, human, UniProt P18850 1-670, looked up, ATF6α, human, full length; Plasmid from R. Prywes (Wang et al., 2000); also called HA-tagged WT; HA-tagged ATF6α WT; source: HCT116 ATF6α/β-DKO cells, transfected, in lysate; not shown: HA, N-terminal, kept) MGEPAGVAGTMESPFSPGLFHRLDEDWDSALFAELGYFTDTDELQLEAANETYENNFDNLDFDLDLMPWESDIWDINNQICTVKDIKAEPQPLSPASSSYSVSSPRSVDSYSSTQHVPEELDLSSSSQMSPLSLYGENSNSLSSAEPLKEDKPVTGPRNKTENGLTPKKKIQVNSKPSIQPKPLLLPAAPKTQTNSSVPAKTIIIQTVPTLMPLAKQQPIISLQPAPTKGQTVLLSQPTVVQLQAPGVLPSAQPVLAVAGGVTQLPNHVVNVVPAPSANSPVNGKLSVTKPVLQSTMRNVGSDIAVLRRQQRMIKNRESACQSRKKKKEYMLGLEARLKAALSENEQLKKENGTLKRQLDEVVSENQRLKVPSPKRRVVCVMIVLAFIILNYGPMSMLEQDSRRMNPSVSPANQRRHLLGFSAKEAQDTSDGIIQKNSYRYDHSVSNDKALMVLTEEPLLYIPPPPCQPLINTTESLRLNHELRGWVHRHEVERTKSRRMTNNQQKTRILQGALEQGSNSQLMAVQYTETTSSISRNSGSELQVYYASPRSYQDFFEAIRRRGDTFYVVSFRRDHLLLPATTHNKTTRPKMSIVLPAININENVINGQDYEVMMQIDCQVMDTRILHIKSSSVPPYLRDQQRNQTNTFFGSPPAATEATHVVSTIPESLQ",2,–
"EGFP-ATF6α(WT) (natural protein, human, UniProt P18850 1-670, looked up, ATF6α, human, tagged with EGFP at the N-terminus; Constructed in previous studies (Nadanaka et al., 2007; 2004); source: HCT116 ATF6α/β-DKO cells, transfected, in lysate; not shown: EGFP, N-terminal, kept) MGEPAGVAGTMESPFSPGLFHRLDEDWDSALFAELGYFTDTDELQLEAANETYENNFDNLDFDLDLMPWESDIWDINNQICTVKDIKAEPQPLSPASSSYSVSSPRSVDSYSSTQHVPEELDLSSSSQMSPLSLYGENSNSLSSAEPLKEDKPVTGPRNKTENGLTPKKKIQVNSKPSIQPKPLLLPAAPKTQTNSSVPAKTIIIQTVPTLMPLAKQQPIISLQPAPTKGQTVLLSQPTVVQLQAPGVLPSAQPVLAVAGGVTQLPNHVVNVVPAPSANSPVNGKLSVTKPVLQSTMRNVGSDIAVLRRQQRMIKNRESACQSRKKKKEYMLGLEARLKAALSENEQLKKENGTLKRQLDEVVSENQRLKVPSPKRRVVCVMIVLAFIILNYGPMSMLEQDSRRMNPSVSPANQRRHLLGFSAKEAQDTSDGIIQKNSYRYDHSVSNDKALMVLTEEPLLYIPPPPCQPLINTTESLRLNHELRGWVHRHEVERTKSRRMTNNQQKTRILQGALEQGSNSQLMAVQYTETTSSISRNSGSELQVYYASPRSYQDFFEAIRRRGDTFYVVSFRRDHLLLPATTHNKTTRPKMSIVLPAININENVINGQDYEVMMQIDCQVMDTRILHIKSSSVPPYLRDQQRNQTNTFFGSPPAATEATHVVSTIPESLQ",2,–
"C618A mutant of ATF6α-TAP (natural protein, human, UniProt P18850 1-670, looked up, ATF6α, human, full length, C618A; also called ATF6α(C618A)-TAP; source: HCT116 ATF6α/β-DKO cells, transfected, in lysate) MGEPAGVAGTMESPFSPGLFHRLDEDWDSALFAELGYFTDTDELQLEAANETYENNFDNLDFDLDLMPWESDIWDINNQICTVKDIKAEPQPLSPASSSYSVSSPRSVDSYSSTQHVPEELDLSSSSQMSPLSLYGENSNSLSSAEPLKEDKPVTGPRNKTENGLTPKKKIQVNSKPSIQPKPLLLPAAPKTQTNSSVPAKTIIIQTVPTLMPLAKQQPIISLQPAPTKGQTVLLSQPTVVQLQAPGVLPSAQPVLAVAGGVTQLPNHVVNVVPAPSANSPVNGKLSVTKPVLQSTMRNVGSDIAVLRRQQRMIKNRESACQSRKKKKEYMLGLEARLKAALSENEQLKKENGTLKRQLDEVVSENQRLKVPSPKRRVVCVMIVLAFIILNYGPMSMLEQDSRRMNPSVSPANQRRHLLGFSAKEAQDTSDGIIQKNSYRYDHSVSNDKALMVLTEEPLLYIPPPPCQPLINTTESLRLNHELRGWVHRHEVERTKSRRMTNNQQKTRILQGALEQGSNSQLMAVQYTETTSSISRNSGSELQVYYASPRSYQDFFEAIRRRGDTFYVVSFRRDHLLLPATTHNKTTRPKMSIVLPAININENVINGQDYEVMMQIDAQVMDTRILHIKSSSVPPYLRDQQRNQTNTFFGSPPAATEATHVVSTIPESLQ",–,stoichiometry N [5]: 2
"C467A mutant of ATF6α-TAP (natural protein, human, UniProt P18850 1-670, looked up, ATF6α, human, full length, C467A; also called ATF6α(C467A)-TAP; source: HCT116 ATF6α/β-DKO cells, transfected, in lysate) MGEPAGVAGTMESPFSPGLFHRLDEDWDSALFAELGYFTDTDELQLEAANETYENNFDNLDFDLDLMPWESDIWDINNQICTVKDIKAEPQPLSPASSSYSVSSPRSVDSYSSTQHVPEELDLSSSSQMSPLSLYGENSNSLSSAEPLKEDKPVTGPRNKTENGLTPKKKIQVNSKPSIQPKPLLLPAAPKTQTNSSVPAKTIIIQTVPTLMPLAKQQPIISLQPAPTKGQTVLLSQPTVVQLQAPGVLPSAQPVLAVAGGVTQLPNHVVNVVPAPSANSPVNGKLSVTKPVLQSTMRNVGSDIAVLRRQQRMIKNRESACQSRKKKKEYMLGLEARLKAALSENEQLKKENGTLKRQLDEVVSENQRLKVPSPKRRVVCVMIVLAFIILNYGPMSMLEQDSRRMNPSVSPANQRRHLLGFSAKEAQDTSDGIIQKNSYRYDHSVSNDKALMVLTEEPLLYIPPPPAQPLINTTESLRLNHELRGWVHRHEVERTKSRRMTNNQQKTRILQGALEQGSNSQLMAVQYTETTSSISRNSGSELQVYYASPRSYQDFFEAIRRRGDTFYVVSFRRDHLLLPATTHNKTTRPKMSIVLPAININENVINGQDYEVMMQIDCQVMDTRILHIKSSSVPPYLRDQQRNQTNTFFGSPPAATEATHVVSTIPESLQ",–,stoichiometry N [5]: 2
"EGFP-ATF6α(C467A) (natural protein, human, UniProt P18850 1-670, looked up, ATF6α, human, C467A, tagged with EGFP at the N-terminus; Constructed in previous studies (Nadanaka et al., 2007; 2004); source: HCT116 ATF6α/β-DKO cells, transfected, in lysate; not shown: EGFP, N-terminal, kept) MGEPAGVAGTMESPFSPGLFHRLDEDWDSALFAELGYFTDTDELQLEAANETYENNFDNLDFDLDLMPWESDIWDINNQICTVKDIKAEPQPLSPASSSYSVSSPRSVDSYSSTQHVPEELDLSSSSQMSPLSLYGENSNSLSSAEPLKEDKPVTGPRNKTENGLTPKKKIQVNSKPSIQPKPLLLPAAPKTQTNSSVPAKTIIIQTVPTLMPLAKQQPIISLQPAPTKGQTVLLSQPTVVQLQAPGVLPSAQPVLAVAGGVTQLPNHVVNVVPAPSANSPVNGKLSVTKPVLQSTMRNVGSDIAVLRRQQRMIKNRESACQSRKKKKEYMLGLEARLKAALSENEQLKKENGTLKRQLDEVVSENQRLKVPSPKRRVVCVMIVLAFIILNYGPMSMLEQDSRRMNPSVSPANQRRHLLGFSAKEAQDTSDGIIQKNSYRYDHSVSNDKALMVLTEEPLLYIPPPPAQPLINTTESLRLNHELRGWVHRHEVERTKSRRMTNNQQKTRILQGALEQGSNSQLMAVQYTETTSSISRNSGSELQVYYASPRSYQDFFEAIRRRGDTFYVVSFRRDHLLLPATTHNKTTRPKMSIVLPAININENVINGQDYEVMMQIDCQVMDTRILHIKSSSVPPYLRDQQRNQTNTFFGSPPAATEATHVVSTIPESLQ",2,–
"EGFP-ATF6α(C618A) (natural protein, human, UniProt P18850 1-670, looked up, ATF6α, human, C618A, tagged with EGFP at the N-terminus; Constructed in previous studies (Nadanaka et al., 2007; 2004); source: HCT116 ATF6α/β-DKO cells, transfected, in lysate; not shown: EGFP, N-terminal, kept) MGEPAGVAGTMESPFSPGLFHRLDEDWDSALFAELGYFTDTDELQLEAANETYENNFDNLDFDLDLMPWESDIWDINNQICTVKDIKAEPQPLSPASSSYSVSSPRSVDSYSSTQHVPEELDLSSSSQMSPLSLYGENSNSLSSAEPLKEDKPVTGPRNKTENGLTPKKKIQVNSKPSIQPKPLLLPAAPKTQTNSSVPAKTIIIQTVPTLMPLAKQQPIISLQPAPTKGQTVLLSQPTVVQLQAPGVLPSAQPVLAVAGGVTQLPNHVVNVVPAPSANSPVNGKLSVTKPVLQSTMRNVGSDIAVLRRQQRMIKNRESACQSRKKKKEYMLGLEARLKAALSENEQLKKENGTLKRQLDEVVSENQRLKVPSPKRRVVCVMIVLAFIILNYGPMSMLEQDSRRMNPSVSPANQRRHLLGFSAKEAQDTSDGIIQKNSYRYDHSVSNDKALMVLTEEPLLYIPPPPCQPLINTTESLRLNHELRGWVHRHEVERTKSRRMTNNQQKTRILQGALEQGSNSQLMAVQYTETTSSISRNSGSELQVYYASPRSYQDFFEAIRRRGDTFYVVSFRRDHLLLPATTHNKTTRPKMSIVLPAININENVINGQDYEVMMQIDAQVMDTRILHIKSSSVPPYLRDQQRNQTNTFFGSPPAATEATHVVSTIPESLQ",2,–
"HA-ATF6α(C467A) (natural protein, human, UniProt P18850 1-670, looked up, ATF6α, human, full length, C467A; Constructed in previous studies (Nadanaka et al., 2007; 2004); also called HA-tagged C467A mutant; source: HCT116 ATF6α/β-DKO cells, transfected, in lysate; not shown: HA, N-terminal, kept) MGEPAGVAGTMESPFSPGLFHRLDEDWDSALFAELGYFTDTDELQLEAANETYENNFDNLDFDLDLMPWESDIWDINNQICTVKDIKAEPQPLSPASSSYSVSSPRSVDSYSSTQHVPEELDLSSSSQMSPLSLYGENSNSLSSAEPLKEDKPVTGPRNKTENGLTPKKKIQVNSKPSIQPKPLLLPAAPKTQTNSSVPAKTIIIQTVPTLMPLAKQQPIISLQPAPTKGQTVLLSQPTVVQLQAPGVLPSAQPVLAVAGGVTQLPNHVVNVVPAPSANSPVNGKLSVTKPVLQSTMRNVGSDIAVLRRQQRMIKNRESACQSRKKKKEYMLGLEARLKAALSENEQLKKENGTLKRQLDEVVSENQRLKVPSPKRRVVCVMIVLAFIILNYGPMSMLEQDSRRMNPSVSPANQRRHLLGFSAKEAQDTSDGIIQKNSYRYDHSVSNDKALMVLTEEPLLYIPPPPAQPLINTTESLRLNHELRGWVHRHEVERTKSRRMTNNQQKTRILQGALEQGSNSQLMAVQYTETTSSISRNSGSELQVYYASPRSYQDFFEAIRRRGDTFYVVSFRRDHLLLPATTHNKTTRPKMSIVLPAININENVINGQDYEVMMQIDCQVMDTRILHIKSSSVPPYLRDQQRNQTNTFFGSPPAATEATHVVSTIPESLQ",2,–
